Molecular target: full-length NiVM G on transfected cells (Nipah virus, Malaysia strain (NiVM), UniProt Q9IH62)
Assay: flow cytometry on cells

B1: mAb S2B10 (antibody, V domains shown)
VH: QMQLQESGPGLVKPSQSLSLTCTVTGYSITSDYAWNWIRQFPRNKLEWMGFITYSGSTSYNPSLKSRISLTRDTSKNQFFLQLSSVTTEDTATYYCARSGANWDWFAYWGQGTLVTVSA
VL: DIQMTQSPASLAVSLGQRATISCRASESVDNYGNSFMHWYQQKPGQPPKLLIYRASKLESGIPARFSGSGSRTDFTLTINPVEADDVATYHCQQSNEDPWTFGGGTKLEIK
binding result: binds

B2: mAb LN1F9 (antibody, V domains shown)
VH: EVKLVESGGGLVKPGGSLKLSCAASGFSFRNYAMSWVRQSPEKRLEWVAEVSSGGGYTYYPDTVTGRFTISRDNAKNILYLEMSSLRSEDTAMYYCTRDPDSSGYLAWFAYWGQGTLVTVSA
VL: DILLTQSPASLSASVGETVTITCRASENINSYLAWYQQKQGKSPQLLVYNAKTLAEGVPSRFSGSGSDTQFSLKINTLQPEDFGTYYCQHHSGTPYTFGGGTKLEIK
binding result: binds

B3: mAb LN3D3 (antibody, V domains shown)
VH: EVKLEESGPELVKPGASVKMSCKASGYTFTNYVMHWVKQKPGQGLEWIGYVNPYNDGTQYNEKFRDKATLTSDKSSSTVYMELNSLTSEDSAVYYCTRGDYPYWVFEVWGAGTTVTVSS
VL: EIQMTQSPATLSVTPGDSVSLSCRASQSISNNLHWYQQKSHESPRLLIKYASQSISGIPSRFSGSGSGTDFTLSINNLETEDFGMYFCQHSDSWPFTFGSGTKLEIK
binding result: binds

B4: mAb S1E2 (antibody, V domains shown)
VH: QMQLQESGPGLVKPSQSLSLTCSVTGYSITSGYYWNWIRQFSGNKLEWMGYINHDGSKNYNPSLKNRISITRDTSKNQFFLKLNSVTTEDTATYYCARDYGSYYYPMDYWGQGTSVTVSS
VL: EIVLTQSPPIMSASPGEKVTITCSASSSVTFMHWFQQKPGTSPKLWIFSTSNLASGVPARFSGSGSGTSYSLTISRMEAEDAATYYCQQRSSYPFTFGSGTKLEIK
binding result: binds
